Results: patent US20180208675A1 (Novo Nordisk, published 2018)
Numbering of substitutions follows the chain as printed. Each block holds one binder with its values, some of them ahead of it.

Key:
[1] = target: T1, human TFPI alpha (full-length TFPIα) (human, UniProt P10646 29-304); assay: cell-based or functional assay
[2] = target: T1, human TFPI alpha (full-length TFPIα); assay: SPR (Biacore T200), Fab captured on Human Fab Binder, TFPIα in solution, 1:1 fit
From the text: (§1) Binding interaction analysis was obtained by Surface Plasmon Resonance in a Biacore T200 instrument. Human Fab Binder (Human Fab Capture Kit, GE Healthcare) was immobilized to a series S CM4 sensor chip (GE Healthcare) in flow-cells 1-4 at 10000 response units (RU) using the amine coupling protocol available within the Biacore T-200 control software (GE Healthcare) and the reagents provided with the Amine Coupling Kit (GE Healthcare).The relevant Fab fragment or Fab-Fab conjugate was captured in flow-cell 2, 3 or 4 at a fixed concentration. Different concentrations of TFPI were tested by diluting TFPI in the running buffer (10 mM Hepes, pH 7.4, 300 mM NaCl, 5 mM CaCl₂, 0.05% Surfactant P20, 1 mg/ml BSA). Each sample was assayed using 300 seconds of contact time followed by 600 seconds of dissociation time at 50 μl/min flow rate. A buffer blank was also assayed. The sensor surface was regenerated with 10 mM Glycine pH 2.1 with two cycles each of 30 seconds at 50 μl/min flow rate.
(§2) Biacore T200 Evaluation software was used to analyse the data. Determination of binding constants (kₒₙ, koff, KD) was obtained assuming a 1:1 interaction of TFPI and the Fab variant or Fab-Fab conjugate of interest.

[3] = target: endogenous TFPI of normal human plasma (human, UniProt P10646 29-304, limits assumed); assay: cell-based or functional assay
[4] = target: T1, human TFPI alpha (full-length TFPIα); assay: SPR (Biacore T200), Fab-Fab conjugate captured on Human Fab Binder, TFPIα in solution, 1:1 fit
From the text: as §1, §2

[5] = target: T1, human TFPI alpha (full-length TFPIα); assay: SPR (Biacore T200), Fab captured on Human Fab Binder, TFPIα in solution, 1:1 fit; remark: listed apart in the source
From the text: as §1, §2

B2: Fab 0094-Fab 0089 conjugate 9004 (bispecific antibody)
heavy 1: EVQLVESGGGLVKPGGSLRLSCAASGFTFSNYAMSWVRQAPGKGLEWVSTISRSGSYSYYPDSVKGRFTISRDNAKNSLYLQMNSLRAEDTAVYYCARLGGYDEGDAMDSWGQGTTVTVSSASTKGPSVFPLAPCSRSTSESTAALGCLVKDYFPEPVTVSWNSGALTSGVHTFPAVLQSSGLYSLSSVVTVPSSSLGTKTYTCNVDHKPSNTKVDKRVESKYGPPC
light 1: DIVMTQTPLSLSVTPGQPASISCKSSQSLLESDGKTYLNWYLQKPGQSPQLLIYLVSILDSGVPDRFSGSGSGTDFTLKISRVEAEDVGVYYCLQATHFPQTFGGGTKVEIKRTVAAPSVFIFPPSDEQLKSGTASVVCLLNNFYPREAKVQWKVDNALQSGNSQESVTEQDSKDSTYSLSSTLTLSKADYEKHKVYACEVTHQGLSSPVTKSFNRGEC
heavy 2: QVQLQQSGAELVKPGASVKLSCKASGYTFISYYMYWVKQRPGQGLEWIGEINPSNGDTNLNEKFKSKATLTVDKSSSTVYMQLSSLTSEDSAVYYCTRWDRFDGFVYWGQGTLVTVSAASTKGPSVFPLAPCSRSTSESTAALGCLVKDYFPEPVTVSWNSGALTSGVHTFPAVLQSSGLYSLSSVVTVPSSSLGTKTYTCNVDHKPSNTKVDKRVESKYGPPC
light 2: ETTVTQSPASLSMAIGGKVTIRCIISTNIDDDINWYQQKPGEPPKLLISEGNTLRPGVPSRFSSSGYGTDFVFTIENMLSEDVADYYCLQSDDLPYTFGGGTKLEIKRTVAAPSVFIFPPSDEQLKSGTASVVCLLNNFYPREAKVQWKVDNALQSGNSQESVTEQDSKDSTYSLSSTLTLSKADYEKHKVYACEVTHQGLSSPVTKSFNRGEC
modifications: C-terminal cysteine coupled through the bis-maleimide linker to the Fab 0094 heavy chain; C-terminal cysteine coupled through 1,16-N,N'-bis(maleimido)-4,13-diaza-7,10-dioxa-3,14-dioxohexadecane to the C-terminal cysteine of the Fab 0089 heavy chain
notes: KPI-2/KPI-3
- Kd [4]: 36 pM
- koff [4]: 0.00022 s⁻¹
- kon [4]: 6.2e+06 M⁻¹ s⁻¹

B3: Fab 0088-Fab 0089 conjugate 9002 (bispecific antibody)
heavy 1: B2 heavy 1 with A40T, G42E, G44R, S49A, Y60F, K65Q
light 1: B2 light 1
heavy 2: B2 heavy 2
light 2: B2 light 2
modifications: C-terminal cysteine coupled through the bis-maleimide linker to the Fab 0088 heavy chain; C-terminal cysteine coupled through 1,16-N,N'-bis(maleimido)-4,13-diaza-7,10-dioxa-3,14-dioxohexadecane to the C-terminal cysteine of the Fab 0089 heavy chain
notes: KPI-2/KPI-3
- Kd [4]: 5.3 pM
- koff [4]: 3.8e-05 s⁻¹
- kon [4]: 7.1e+06 M⁻¹ s⁻¹

B5: Fab 0313-Fab 0089 conjugate 9031 (bispecific antibody)
heavy 1: B2 heavy 1 with P61A
light 1: B2 light 1
heavy 2: B2 heavy 2
light 2: B2 light 2
modifications: C-terminal cysteine coupled through the bis(acetyl)ethylene diamine linker to the Fab 0313 heavy chain; C-terminal cysteine coupled through bis(bromoacetyl)ethylene diamine to the C-terminal cysteine of the Fab 0089 heavy chain
notes: KPI-2/KPI-3; also called Fab 0313-FAb 0089 (9031)
- Kd [4]: 170 pM
- koff [4]: 0.0067 s⁻¹
- kon [4]: 4e+07 M⁻¹ s⁻¹

B6: Fab 2F22 (Fab, V domains shown)
VH: QVQLKQSGPGLVQPSQSLSITCTVSGFSLTNYGVHWVRQSPGKGLEWLAVIWRGGSIDYNAAFMSRLSITKDNSKSQVFFKMNSLQADDTAIYYCAKNSHGNYVGYAMDYWGQGTSVTVSS
VL: GIVMTQSQKFMSTTVGDRVSITCKASQSVGPAVAWYQQKPGQSPKLLIYSASNRYTGVPDRFTGSGSGADFTLTISNLHSEDLADYFCQQYTSYPTFGGGTKLEIKR
notes: KPI-1 specific; HC truncated after the hinge cysteine; also called Fab fragment 2F22; extended Fab 2F22 (Fab for chemical coupling)
- Kd [5]: 1700 pM

Next, values leading:

- thrombin peak (nM) at 6.25 nM, FVIII-neutralised plasma + 2 nM TFPIα [1]: 13.3 nM
- thrombin peak (nM) at 12.5 nM, FVIII-neutralised plasma + 2 nM TFPIα [1]: 19.4 nM
- thrombin peak (nM) at 25.0 nM, FVIII-neutralised plasma + 2 nM TFPIα [1]: 22.4 nM
- thrombin peak (nM) at 50.0 nM, FVIII-neutralised plasma + 2 nM TFPIα [1]: 25.1 nM
- thrombin peak (nM) at 100 nM, FVIII-neutralised plasma + 2 nM TFPIα [1]: 24.6 nM
- Kd [2]: 780 pM
- koff [2]: 0.003 s⁻¹
- kon [2]: 3.9e+06 M⁻¹ s⁻¹
- thrombin peak (nM) at 6.25 nM, FVIII-neutralised plasma, endogenous TFPI [3]: 74.2 nM
- thrombin peak (nM) at 12.5 nM, FVIII-neutralised plasma, endogenous TFPI [3]: 81.3 nM
- thrombin peak (nM) at 25.0 nM, FVIII-neutralised plasma, endogenous TFPI [3]: 84.9 nM
- thrombin peak (nM) at 50.0 nM, FVIII-neutralised plasma, endogenous TFPI [3]: 85.4 nM
- thrombin peak (nM) at 100 nM, FVIII-neutralised plasma, endogenous TFPI [3]: 84.7 nM
B1: Fab 0095 (Fab fragment of mAb 2014) (Fab, V domains shown)
VH: EVQLVESGGGLVKPGGSLRLSCAASGFTFSNYAMSWVRQAPGKGLEWVSTISRSGSYSYYADSVKGRFTISRDNAKNSLYLQMNSLRAEDTAVYYCARLGGYDEGDAMDSWGQGTTVTVSS
VL: DIVMTQTPLSLSVTPGQPASISCKSSQSLLESDGKTYLNWLLQRPGESPKLLIYLVSILDSGVPDRFSGSGSGTDFTLKISRVEAEDVGVYYCLQATHFPQTFGGGTKVEIKR
notes: KPI-2 specific

- Kd [4]: 38 pM
- koff [4]: 0.00023 s⁻¹
- kon [4]: 6.1e+06 M⁻¹ s⁻¹
B4: Fab 0095-Fab 0089 conjugate 9005 (bispecific antibody)
heavy 1: B2 heavy 1 with P61A
light 1: B2 light 1 with Y41L, K44R, Q47E, Q50K
heavy 2: B2 heavy 2
light 2: B2 light 2
modifications: C-terminal cysteine coupled through the bis-maleimide linker to the Fab 0095 heavy chain; C-terminal cysteine coupled through 1,16-N,N'-bis(maleimido)-4,13-diaza-7,10-dioxa-3,14-dioxohexadecane to the C-terminal cysteine of the Fab 0089 heavy chain
notes: KPI-2/KPI-3; also called Fab 0095-Fab 0089 (9005)
